Assay [1] concerns the target T1, mKO-FM14-C-LZB.
T1 construct: Made by in vitro translation; also called fusion of the C-terminal fragment (169th-218th) of mKO-FM14 with leucine zipper basic (LZB)
T1 chain: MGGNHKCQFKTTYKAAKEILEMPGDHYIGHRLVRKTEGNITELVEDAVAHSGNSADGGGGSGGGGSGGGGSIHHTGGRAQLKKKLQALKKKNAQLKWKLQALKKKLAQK
The experiment in a line: split fluorescent protein complementation in vitro, in vitro translated proteins mixed in PBS at 37° C., fluorescence after 3, 5 and 7 hours. As for the experimental part: (§1) 20 μl of each mKO-FM14-N-LZA and mKO-FM14-C-LZB which was synthesized by in vitro translation was added to 1000 μl of PBS and the total volume was made up to 1040 μl. The mixture was left standing at 37° C. and the fluorescence measurements were carried out every 2 hours (after 3, 5 and 7 hours from the mixing) by a F-2500 (HITACHI). The method of measurement was by the double wavelength excitation and a single wavelength measurement (excitation spectra at 580 nm, green component and orange component were set at 500 nm and 548 nm, respectively) or by the double wavelength excitation and double wavelength measurement (green fluorescence at 509 nm by excitation by 470 nm and orange fluorescence at 560 nm by excitation by 520 nm were obtained) (FIG. 2). Also, as negative controls, 20 μl of each mKO-FM14-N and mKO-FM14-C which was synthesized by in vitro translation and to which no proteins for interaction were fused was added to 1000 μl of PBS and the total volume was made up to 1040 μl. The mixture was left standing at 37° C. and the fluorescence measurements were carried out every 2 hours (after 3, 5 and 7 hours from the mixing) by a F-2500 (HITACHI).

For assay [2], the target named is T1, mKO-FM14-C-LZB. As to the kind of experiment: split fluorescent protein complementation in vitro, fluorescence from 1 to 12 hours after mixing. As for the experimental part: as §1, with “The mixture was left standing at 37° C. and the fluorescence measurements were carried out every 2 hours (after 3, 5 and 7 hours from the mixing) by a F-2500 (HITACHI).” left out
By substituting the 70th proline (P) of mKO with various amino acids, variants were obtained in which the ratio of green fluorescence and orange fluorescence was changed according to the passage of time. The variant in which 70th proline (P) was substituted with alanine (A), serine (S), cysteine (C), threonine (T), and valine (V) was designated as mKO-FM5, mKO-FM3, mKO-FM20, mKO-FM24 and mKO-FM14, respectively. Each variant was similarly split into two molecules and similarly fused with LZA and LZB to carry out analyses.

Another assay has as its target T2, mKO-FM14-C.
T2 construct: Fragment without linker and leucine zipper, made by in vitro translation; also called C-terminal fragment from 169th to 218th of mKO-FM14; negative control without leucine zipper
T2 chain: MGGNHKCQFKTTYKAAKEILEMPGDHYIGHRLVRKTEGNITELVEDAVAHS
The experiment in a line: split fluorescent protein complementation in vitro, 20 µl of each in vitro translated fragment in PBS at 37° C., fluorescence after 3, 5 and 7 hours. As for the experimental part:
as §1

B1: mKO-FM14-N-LZA (other)
chain: MVSVIKPEMKMRYYMDGSVNGHEFTIEGEGTGRPYEGHQEMTLRVTMAEGGPMPFAFDLVSHVFCYGHRVFTKYPEEIPDYFKQAFPEGLSWERSLEFEDGGSASVSAHISLRGNTFYHKSKFTGVNFPADGPIMQNQSVDWEPSTEKITASDGVLKGDVTMYLKLEGGNSADGGGGSGGGGSGGGGSIHHTGGRAQLEKELQALEKENAQLEWELQALEKELAQK
notes: Made by in vitro translation; also called fusion of the N-terminal fragment (1st-168th) of mKO-FM14 with leucine zipper acidic (LZA)
With B1, the binding result in the assay with mKO-FM14-C-LZB [1] is “binds”.

B2: mKO-FM3-N-LZA (other)
chain: MVSVIKPEMKMRYYMDGSVNGHEFTIEGEGTGRPYEGHQEMTLRVTMAEGGPMPFAFDLVSHVFCYGHRSFTKYPEEIPDYFKQAFPEGLSWERSLEFEDGGSASVSAHISLRGNTFYHKSKFTGVNFPADGPIMQNQSVDWEPSTEKITASDGVLKGDVTMYLKLEGGNSADGGGGSGGGGSGGGGSIHHTGGRAQLEKELQALEKENAQLEWELQALEKELAQK
notes: N-terminal fragment (1-168) of mKO-FM3 (serine at position 70) fused with LZA
As to B2, the binding result with mKO-FM14-C-LZB [2] is “binds”.

B3: mKO-FM5-N-LZA (other)
chain: MVSVIKPEMKMRYYMDGSVNGHEFTIEGEGTGRPYEGHQEMTLRVTMAEGGPMPFAFDLVSHVFCYGHRAFTKYPEEIPDYFKQAFPEGLSWERSLEFEDGGSASVSAHISLRGNTFYHKSKFTGVNFPADGPIMQNQSVDWEPSTEKITASDGVLKGDVTMYLKLEGGNSADGGGGSGGGGSGGGGSIHHTGGRAQLEKELQALEKENAQLEWELQALEKELAQK
notes: N-terminal fragment (1-168) of mKO-FM5 (alanine at position 70) fused with LZA
For the molecule B3, the binding result with mKO-FM14-C-LZB [2] is given as “binds”.

B4: mKO-FM20-N-LZA (other)
chain: MVSVIKPEMKMRYYMDGSVNGHEFTIEGEGTGRPYEGHQEMTLRVTMAEGGPMPFAFDLVSHVFCYGHRCFTKYPEEIPDYFKQAFPEGLSWERSLEFEDGGSASVSAHISLRGNTFYHKSKFTGVNFPADGPIMQNQSVDWEPSTEKITASDGVLKGDVTMYLKLEGGNSADGGGGSGGGGSGGGGSIHHTGGRAQLEKELQALEKENAQLEWELQALEKELAQK
notes: N-terminal fragment (1-168) of mKO-FM20 (cysteine at position 70) fused with LZA
Consider B4, for which the binding result with mKO-FM14-C-LZB [2] is on record as “binds”.

B5: mKO-FM24-N-LZA (other)
chain: MVSVIKPEMKMRYYMDGSVNGHEFTIEGEGTGRPYEGHQEMTLRVTMAEGGPMPFAFDLVSHVFCYGHRTFTKYPEEIPDYFKQAFPEGLSWERSLEFEDGGSASVSAHISLRGNTFYHKSKFTGVNFPADGPIMQNQSVDWEPSTEKITASDGVLKGDVTMYLKLEGGNSADGGGGSGGGGSGGGGSIHHTGGRAQLEKELQALEKENAQLEWELQALEKELAQK
notes: N-terminal fragment (1-168) of mKO-FM24 (threonine at position 70) fused with LZA
On to B5, for which the binding result with mKO-FM14-C-LZB [2] is “binds”.

B6: mKO-FM14-N (other)
chain: MVSVIKPEMKMRYYMDGSVNGHEFTIEGEGTGRPYEGHQEMTLRVTMAEGGPMPFAFDLVSHVFCYGHRVFTKYPEEIPDYFKQAFPEGLSWERSLEFEDGGSASVSAHISLRGNTFYHKSKFTGVNFPADGPIMQNQSVDWEPSTEKITASDGVLKGDVTMYLKLEG
notes: Fragment without linker and leucine zipper, made by in vitro translation; also called N-terminal fragment from the 1st to the 168th of mKO-FM14; negative control without leucine zipper
In the case of B6, the binding result in the assay with mKO-FM14-C is listed as “no binding”.

(Values after patent publication US20070031912A1 (RIKEN, published 2007).)
